Results reported in patent publication US11692025 (UNIVERSITY COURT OF THE UNIVERSITY OF ABERDEEN, dated 2023).
Numbering of substitutions follows the chain as printed. One block for each binder: values may come before it.

Columns and labels:
hen egg lysozyme [1] = molecular target: T1, hen egg lysozyme (hen, UniProt P00698 19-147); assay: BIAcore
T1 construct: also called HEL

rat serum albumin [2] = molecular target: T2, rat serum albumin (rat, UniProt P02770 25-608); assay: BIAcore, mean ± SE
T2 construct: also called RSA

human serum albumin [3] = molecular target: T3, human serum albumin (human, UniProt P02768 25-609); assay: BIAcore, mean ± SE
T3 construct: also called HSA; HAS

CSA = molecular target: T4, CSA (monkey, UniProt A2V9Z4 25-608, limits assumed); assay: BIAcore, mean ± SE
T4 construct: also called monkey albumin

mouse serum albumin [4] = molecular target: T5, mouse serum albumin (mouse, UniProt P07724 25-608); assay: BIAcore, mean ± SE
T5 construct: also called MSA

rat serum albumin [5] = molecular target: T2, rat serum albumin; assay: BIAcore, pH 7.4, monomeric 6xHis-tagged VNAR
human serum albumin [6] = molecular target: T3, human serum albumin; assay: BIAcore, pH 7.4, monomeric 6xHis-tagged VNAR
mouse serum albumin [7] = molecular target: T5, mouse serum albumin; assay: BIAcore, pH 7.4, monomeric 6xHis-tagged VNAR
rat serum albumin [8] = molecular target: T2, rat serum albumin; assay: BIAcore, pH 6.0, monomeric 6xHis-tagged VNAR
human serum albumin [9] = molecular target: T3, human serum albumin; assay: BIAcore, pH 6.0, monomeric 6xHis-tagged VNAR
mouse serum albumin [10] = molecular target: T5, mouse serum albumin; assay: BIAcore, pH 6.0, monomeric 6xHis-tagged VNAR
human serum albumin [11] = molecular target: T3, human serum albumin; assay: phage and periprep ELISA on HSA; purified 6xHis-tagged VNAR
Description: The resultant mutational phage display libraries were rescued and selected twice using Nunc Maxisorp immunotubes. Following each pan, two 96-well plates of individual colonies were picked with a QPix2 XT (Genetix, San Jose, Calif., USA). Binding as monoclonal phage and periprep was evaluated by ELISA. All samples were processed with a Perkin Elmer MiniTrak robotic liquid handling system (Waltham, Mass., USA).

hen egg lysozyme [12] = molecular target: T1, hen egg lysozyme; assay: Biacore, monomeric VNAR
human serum albumin [13] = molecular target: T3, human serum albumin; assay: BIAcore
mouse serum albumin [14] = molecular target: T5, mouse serum albumin; assay: BIAcore

T1 sequence (P00698 19-147): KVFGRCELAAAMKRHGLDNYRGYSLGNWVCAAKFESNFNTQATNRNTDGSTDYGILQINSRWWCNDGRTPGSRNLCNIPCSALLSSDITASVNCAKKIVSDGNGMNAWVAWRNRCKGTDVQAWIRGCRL
T4 sequence (A2V9Z4 25-608 limits assumed): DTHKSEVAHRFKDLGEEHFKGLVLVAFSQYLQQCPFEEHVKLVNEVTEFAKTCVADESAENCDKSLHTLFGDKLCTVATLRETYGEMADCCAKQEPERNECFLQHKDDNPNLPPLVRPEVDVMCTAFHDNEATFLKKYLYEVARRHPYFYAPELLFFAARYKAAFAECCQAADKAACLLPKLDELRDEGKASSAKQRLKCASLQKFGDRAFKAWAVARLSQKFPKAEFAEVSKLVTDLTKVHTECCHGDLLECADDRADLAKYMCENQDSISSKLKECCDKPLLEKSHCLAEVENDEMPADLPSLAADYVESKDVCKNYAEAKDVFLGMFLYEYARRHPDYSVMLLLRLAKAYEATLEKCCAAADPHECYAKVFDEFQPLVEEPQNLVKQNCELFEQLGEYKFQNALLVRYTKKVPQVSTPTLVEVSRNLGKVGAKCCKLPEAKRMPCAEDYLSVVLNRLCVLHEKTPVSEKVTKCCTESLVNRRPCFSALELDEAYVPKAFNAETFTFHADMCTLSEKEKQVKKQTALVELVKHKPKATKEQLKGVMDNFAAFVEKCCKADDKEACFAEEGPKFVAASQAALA
T2 sequence (P02770 25-608 limits assumed): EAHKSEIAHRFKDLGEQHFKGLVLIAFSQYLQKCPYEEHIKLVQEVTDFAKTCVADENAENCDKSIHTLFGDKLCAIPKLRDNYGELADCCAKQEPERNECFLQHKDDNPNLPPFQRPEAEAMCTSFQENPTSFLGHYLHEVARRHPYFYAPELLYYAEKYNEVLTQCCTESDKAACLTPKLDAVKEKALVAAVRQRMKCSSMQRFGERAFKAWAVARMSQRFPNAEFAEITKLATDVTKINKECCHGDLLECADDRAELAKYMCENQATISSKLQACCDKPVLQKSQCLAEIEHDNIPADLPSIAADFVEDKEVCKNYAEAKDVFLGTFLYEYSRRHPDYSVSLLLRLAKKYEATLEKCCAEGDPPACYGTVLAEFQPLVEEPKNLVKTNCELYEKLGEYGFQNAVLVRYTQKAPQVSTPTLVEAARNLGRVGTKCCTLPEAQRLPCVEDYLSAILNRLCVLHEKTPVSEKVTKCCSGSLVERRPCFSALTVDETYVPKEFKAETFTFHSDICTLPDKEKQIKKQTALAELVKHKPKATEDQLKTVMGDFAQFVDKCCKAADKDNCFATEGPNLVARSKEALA
T5 sequence (P07724 25-608 limits assumed): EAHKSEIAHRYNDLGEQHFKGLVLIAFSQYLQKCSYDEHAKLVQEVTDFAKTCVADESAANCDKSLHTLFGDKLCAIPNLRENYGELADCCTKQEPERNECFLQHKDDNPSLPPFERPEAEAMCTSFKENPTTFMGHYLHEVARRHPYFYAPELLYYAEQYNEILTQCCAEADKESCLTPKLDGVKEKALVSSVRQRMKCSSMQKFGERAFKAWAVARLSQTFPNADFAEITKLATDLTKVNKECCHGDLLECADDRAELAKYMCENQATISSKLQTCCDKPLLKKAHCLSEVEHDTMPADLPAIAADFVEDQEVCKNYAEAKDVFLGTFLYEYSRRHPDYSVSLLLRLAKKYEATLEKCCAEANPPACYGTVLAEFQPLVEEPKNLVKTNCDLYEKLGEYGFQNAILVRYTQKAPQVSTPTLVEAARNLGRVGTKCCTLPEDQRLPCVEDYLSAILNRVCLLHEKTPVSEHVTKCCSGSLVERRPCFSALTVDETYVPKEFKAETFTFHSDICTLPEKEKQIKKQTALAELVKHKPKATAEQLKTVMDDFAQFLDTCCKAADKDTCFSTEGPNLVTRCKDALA

B1: E06-AAA-6xHis (VNAR)
VNAR: TRVDQTPRTATRETGESLTINCVLTDTSYPLYSTYWYRKNPGSSNKEQISISGRYVESVNKGTKSFSLRIKDLTVADSATYICRAMGTNIWTGDGAGTVLTVNA
notes: Shark VNAR single domain against serum albumin; also called wild-type E06; monomeric 6xHis-tagged E06
- binding result (hen egg lysozyme [1]): no binding
- Kd (rat serum albumin [2]): 1340 pM
- koff (rat serum albumin [2]): 0.00301 s⁻¹
- kon (rat serum albumin [2]): 2.24e+06 M⁻¹ s⁻¹
- Kd (human serum albumin [3]): 189 pM
- koff (human serum albumin [3]): 0.000583 s⁻¹
- kon (human serum albumin [3]): 3.09e+06 M⁻¹ s⁻¹
- Kd (CSA): 219 pM
- koff (CSA): 0.000584 s⁻¹
- kon (CSA): 2.68e+06 M⁻¹ s⁻¹
- Kd (mouse serum albumin [4]): 740 pM
- koff (mouse serum albumin [4]): 0.00171 s⁻¹
- kon (mouse serum albumin [4]): 2.32e+06 M⁻¹ s⁻¹
- Kd (rat serum albumin [5]): 1450 pM
- koff (rat serum albumin [5]): 0.0032 s⁻¹
- kon (rat serum albumin [5]): 2.21e+06 M⁻¹ s⁻¹
- Kd (human serum albumin [6]): 190 pM
- koff (human serum albumin [6]): 0.000655 s⁻¹
- kon (human serum albumin [6]): 3.48e+06 M⁻¹ s⁻¹
- Kd (mouse serum albumin [7]): 830 pM
- koff (mouse serum albumin [7]): 0.0018 s⁻¹
- kon (mouse serum albumin [7]): 2.18e+06 M⁻¹ s⁻¹
- Kd (rat serum albumin [8]): 340 pM
- koff (rat serum albumin [8]): 0.00433 s⁻¹
- kon (rat serum albumin [8]): 1.26e+07 M⁻¹ s⁻¹
- Kd (human serum albumin [9]): 140 pM
- koff (human serum albumin [9]): 0.00159 s⁻¹
- kon (human serum albumin [9]): 1.12e+07 M⁻¹ s⁻¹
- Kd (mouse serum albumin [10]): 330 pM
- koff (mouse serum albumin [10]): 0.00323 s⁻¹
- kon (mouse serum albumin [10]): 9.85e+06 M⁻¹ s⁻¹

B3: BE4 (VNAR)
VNAR: TRVDQSPSSLSASVGDRVTITCVLTDTSYSLYSTYWYRKNPGSSNKEQISISGRYSESVNKGTKSFTLTISSLQPEDFATYYCRAMGTNIWTGDGAGTKVEIK
notes: Variant of huE06 v1.10 from error-prone PCR
- binding result (human serum albumin [11]): binds

B4: 5A7IVabc-AAA-6xHis (VNAR)
VNAR: ARVDQSPSSLSASVGDRVTITCVLRDASYALGSTCWYQQKPGKAPKSISKGGRYSESVNSGSKSFTLTISSLQPEDFATYYCGLGVAGGYCDYALCSSRYAECGQGTKVEIKA
notes: Humanized 5A7 VNAR, monomeric; also called humanized 5A7-IVabc
- Kd (hen egg lysozyme [12]): 14800 pM
- koff (hen egg lysozyme [12]): 0.173 s⁻¹
- kon (hen egg lysozyme [12]): 1.17e+07 M⁻¹ s⁻¹

B5: 5A7-AAA-6xHis (VNAR)
VNAR: ARVDQTPRSVTKETGESLTINCVLRDASYALGSTCWYRKKSGEGNEESISKGGRYVETVNSGSKSFSLRINDLTVEDGGTYRCGLGVAGGYCDYALCSSRYAECGDGTAVTVNA
notes: Type I shark VNAR against hen egg lysozyme, monomeric; also called parental 5A7; anti-HEL 5A7
- binding result (human serum albumin [13]): no binding
- binding result (mouse serum albumin [14]): no binding

The remaining lines, values ahead:

- binding result (human serum albumin [11]): binds
B2: BD12 (VNAR)
VNAR: B3 VNAR with S30P, K64N
notes: as for B3

- Kd (rat serum albumin [2]): 5950 pM
- koff (rat serum albumin [2]): 0.00344 s⁻¹
- kon (rat serum albumin [2]): 623000 M⁻¹ s⁻¹
- Kd (human serum albumin [3]): 721 pM
- koff (human serum albumin [3]): 0.000641 s⁻¹
- kon (human serum albumin [3]): 953000 M⁻¹ s⁻¹
- Kd (CSA): 910 pM
- koff (CSA): 0.000682 s⁻¹
- kon (CSA): 820000 M⁻¹ s⁻¹
- Kd (mouse serum albumin [4]): 2490 pM
- koff (mouse serum albumin [4]): 0.00214 s⁻¹
- kon (mouse serum albumin [4]): 862000 M⁻¹ s⁻¹
B6: 2V-E06 (VNAR, part only; not given: naive VNAR 2V and linker, not shown: small tags and cut ends)
chain, part: TRVDQTPRTATRETGESLTINCVLTDTSYPLYSTYWYRKNPGSSNKEQISISGRYVESVNKGTKSFSLRIKDLTVADSATYICRAMGTNIWTGDGAGTVLTVNAAAHHHHHH
